Entries after “also recorded” stand apart in the source; their conditions may differ. Where two headings read alike, the source gives them in different places.
Experiments:
GFP(3TAG) [1] = format: cell-based, E. coli
Protocol: (§1) Liquid cell cultures of strains harboring chromosomally integrated OTSs and GFP reporter plasmids were inoculated from frozen stocks and grown to confluence overnight. Cultures were then inoculated at 1:20 dilution in LBmin media supplemented with 30 μg/ml kanamycin. Strains were inoculated by addition of 1:20 confluent cell culture (grown overnight) and allowed to grow at 34° C. to an OD600 of 0.5-0.8 in a shaking plate incubator at 650 r.p.m (˜3 h). AARS expression was then induced by the addition of 0.2% arabinose, GFP expression was induced by the addition of 60 ng/ul anhydrotetracycline, and the appropriate nsAA was added to a concentration of 1 mM. Cells were incubated at 34° C. for an additional 16 h. Liquid cell cultures of strains harboring plasmid-based OTSs and GFP or ELP-GFP reporter plasmids were inoculated from frozen stocks and grown to confluence overnight. Cultures were then inoculated at 1:20 dilution in 2×YT media supplemented with 30 μg/ml kanamycin and 20 μg/ml chloramphenicol. […] Cells were allowed to grow at 34° C. to an OD600 of 0.5-0.8 in a shaking plate incubator at 650 r.p.m (˜3 h), reporter protein expression was then induced by the addition of 60 ng/ul anhydrotetracycline, and cells were incubated at 34° C. for an additional 16 h.
(§2) For 384 well plate-based assays, fluorescence and OD600 were directly measured following expression. For 96 well plate-based assays, cells were centrifuged at 4,000 g for 4 min. Supernatant medium was removed and cells were resuspended in PBS. This process was repeated twice with PBS. GFP fluorescence was measured on a Biotek spectrophotometric plate reader using excitation and emission wavelengths of 395 and 509 nm, respectively). Fluorescence signals were normalized by dividing the fluorescence counts by the OD600 reading. The nsAAs used in this study were purchased from Sigma-Aldrich (St. Louis, Mo.), Chemlmpex (Wood Dale, Ill.), and Bachem (Torrance, Calif.). Solutions of nsAAs (50 mM) were made in water or 50 mM NaOH; these stock solutions were diluted 50- or 100-fold (to 1 mM final concentration) into medium used for bacterial growth.

GFP(3TAG) [2] = experiment: nsAA library screening, GFP(3TAG) fluorescence in 384 well plates; format: cell-based, E. coli; details: GFP(3TAG) production in the presence of pAcF, pAzF and 236 other nsAAs
Protocol: as §1
as §2, with “growth. […]” for “growth.”

[3] = ATP-PPi exchange assay (amino acid activation); format: biochemical; details: for Fold change: relative to progenitor pAcFRS
Protocol: A 25 μl ATP-PPi exchange reaction contained the following components: 100 mM HEPES-KOH (pH 7.5), 30 mM KCl, 10 mM MgCl2, 2 mM DTT, 2 mM KF, 2 mM NaPPi, 5 mM ATP, […], 2 μCi/μl of […] (PerkinElmer) and varied concentrations of amino acids (0.25, 0.5, 1.25, 2.5, 5, 10, and 20 mM, respectively). The reactions were incubated at 37° C. Time points were taken at 2 minutes, 5 minutes and 10 minutes by plotting 1 μl aliquots from the reaction immediately to the PEI-cellulose plates (Merck). For each reaction, 1 μl of blank reaction mixture containing no enzymes was set as background. The reaction mixtures were separated on the plates in 1 M urea and 1 M monopotassium phosphate. The plates were then scanned in a Molecular Dynamics Storm 860 phosphorimager (Amersham Biosciences). The ratio of ATP to PPi was determined to monitor reaction progress. The kinetic constants were derived from plotting initial velocity of a series of reactions that contained varied concentrations of amino acids. The data were analyzed by GraFit 5.0 (Erithacus Software).

ELP(30TAG)-GFP = experiment: ELP expression and purification, yield of purified ELP(30TAG)-GFP; format: cell-based, E. coli
Protocol: Before batch expression, starter cultures (2 mL) of 2×YT media supplemented with 30 μg/mL kanamayacin and 20 μg/mL chloramphenicol were inoculated with transformed cells from a fresh agar plate or from stocks stored at −80° C., and incubated overnight at 34° C. while shaking at 250 rpm. Expression cultures (250 ml flasks containing 50 ml of 2×YT media, antibiotics, 0.2% arabinose and 1 mM of the nsAA) were inoculated with 0.5 ml of the starter culture and incubated at 34° C. for 4 h and then reporter protein expression was induced with 60 μg/mL anhydrotetracyclin.
Cells were harvested 24 h after inoculation by centrifugation at 4,000 g for 15 min at 4° C. The cell pellet was resuspended by vortex in ˜1.5 mL PBS buffer and stored at −80° C. or immediately purified. For purification, resuspended pellets were lysed by ultrasonic disruption (9 cycles of 10 s sonication separated by 40 s intervals). Poly(ethyleneimine) (0.2 mL of 10% solution) was added to each lysed suspension before centrifugation at 15,000 g for 3 min to separate cell debris from the soluble cell lysate.
All ELP constructs were purified by a modified Inverse Transition Cycling (ITC) protocol consisting of multiple “hot” and “cold” spins using sodium citrate to trigger the phase transition. Before purification, the soluble cell lysate was incubated for 1-2 min at ˜65° C. to denature native E. coli proteins. For “hot” spins, the ELP phase transition was triggered by adding sodium citrate to the cell lysate or the product of a previous cycle of ITC at a final concentration of ˜0.5 M. The solutions were then centrifuged at 14,000 g for 3 min and the pellets were resuspended in PBS, followed by a 3-5 min “cold” spin performed without addition of sodium citrate to remove denatured contaminant. Additional rounds of ITC were carried out as needed until sufficient purification was achieved.
Protein concentration was calculated by measuring the OD280 of purified protein stocks according to the following extinction coefficients for ELP(30TAG)-GFP.

[4] = chromosomally integrated AARS, pAzF

B1: pAzFRS.1.t1: pAcFRS variant D158V, I159M, L162D, A167Y, R257G, SEQ ID NO: 11 (protein)
chain: MDEFEMIKRNTSEIISEEELREVLKKDEKSALIGFEPSGKIHLGHYLQIKKMIDLQNAGFDIIILLADLHAYLNQKGELDEIRKIGDYNKKVFEAMGLKAKYVYGSEFQLDKDYTLNVYRLALKTTLKRARRSMELIAREDENPKVAEVIYPIMQVNVMHYDGVDVYVGGMEQRKIHMLARELLPKKVVCIHNPVLTGLDGEGKMSSSKGNFIAVDDSPEEIRAKIKKAYCPAGVVEGNPIMMEIAKYFLEYPLTIKGPEKFGGDLTVNSYEELESLFKNKELHPMRLKNAVAEELIKILEPIRKRL
higher GFP(3TAG) production compared with the progenitor enzyme (GFP(3TAG) [1]; [4]): ~5.5 fold | nsAA specificity (polyspecificity) (GFP(3TAG) [2]): specific for pAzF; also recorded: exceptional specificity toward pAzF with almost complete exclusion of any other nsAA | Km ([3]; nsAA pAzF): 990 ± 130 µM | kcat ([3]; nsAA pAzF): 4.79 ± 0.67 ×10^−2 s^−1 | Fold change ([3]; nsAA pAzF): 3.32

B2: pAcFRS.1.t1: pAcFRS variant A167D, R257G, SEQ ID NO: 5 (protein)
chain: MDEFEMIKRNTSEIISEEELREVLKKDEKSALIGFEPSGKIHLGHYLQIKKMIDLQNAGFDIIILLADLHAYLNQKGELDEIRKIGDYNKKVFEAMGLKAKYVYGSEFQLDKDYTLNVYRLALKTTLKRARRSMELIAREDENPKVAEVIYPIMQVNGCHYRGVDVDVGGMEQRKIHMLARELLPKKVVCIHNPVLTGLDGEGKMSSSKGNFIAVDDSPEEIRAKIKKAYCPAGVVEGNPIMEIAKYFLEYPLTIKGPEKFGGDLTVNSYEELESLFKNKELHPMRLKNAVAEELIKILEPIRKRL
higher GFP(3TAG) production compared with the progenitor enzyme (GFP(3TAG) [1]; chromosomally integrated AARS, pAcF): ~17 fold | nsAA specificity (polyspecificity) (GFP(3TAG) [2]): polyspecifity for at least pAcF, pAzF, StyA, 4IF, 4BrF, 4ClF, 4MeF, 4Cf3F, MeY, 4NO2F, 4BuF, BuY, 2NaA, PheF | Yield of purified ELP(30TAG)-GFP (ELP(30TAG)-GFP; nsAA pAcF, GRO): 52.6 ± 6.3 mg/L | Km ([3]; nsAA pAcF): 1680 ± 780 µM | kcat ([3]; nsAA pAcF): 6.12 ± 0.74 ×10^−2 s^−1 | Fold change ([3]; nsAA pAcF): 5.34 | Km ([3]; nsAA pAzF): 1490 ± 110 µM | kcat ([3]; nsAA pAzF): 3.65 ± 0.62 ×10^−2 s^−1 | Fold change ([3]; nsAA pAzF): 1.68

B3: pAzFRS.2.t1: pAcFRS variant E107T, F108Y, Q109M, R257G, SEQ ID NO: 14 (protein)
chain: MDEFEMIKRNTSEIISEEELREVLKKDEKSALIGFEPSGKIHLGHYLQIKKMIDLQNAGFDIIILLADLHAYLNQKGELDEIRKIGDYNKKVFEAMGLKAKYVYGSTYMLDKDYTLNVYRLALKTTLKRARRSMELIAREDENPKVAEVIYPIMQVNGCHYRGVDVAVGGMEQRKIHMLARELLPKKVVCIHNPVLTGLDGEGKMSSSKGNFIAVDDSPEEIRAKIKKAYCPAGVVEGNPIMEIAKYFLEYPLTIKGPEKFGGDLTVNSYEELESLFKNKELHPMRLKNAVAEELIKILEPIRKRL
higher GFP(3TAG) production compared with the progenitor enzyme (GFP(3TAG) [1]; [4]): ~25 fold | nsAA specificity (polyspecificity) (GFP(3TAG) [2]): polyspecific for at least pAcF, pAzF, StyA, 4IF, 4BrF, 4ClF, 4MeF, 4Cf3F, MeY, 4NO2F, 4BuF, BuY, 2NaA, PheF | Yield of purified ELP(30TAG)-GFP (ELP(30TAG)-GFP; nsAA 4ClF, GRO): 48.2 ± 11.2 mg/L | Yield of purified ELP(30TAG)-GFP (ELP(30TAG)-GFP; nsAA pAcF, GRO): 39.05 ± 3.4 mg/L | Yield of purified ELP(30TAG)-GFP (ELP(30TAG)-GFP; nsAA pAzF, GRO): 41.9 ± 6^ mg/L | Km ([3]; nsAA pAzF): 1400 ± 350 µM | kcat ([3]; nsAA pAzF): 4.14 ± 0.23 ×10^−2 s^−1 | Fold change ([3]; nsAA pAzF): 2.02

B4: pAcFRS: progenitor M. jannaschii based p-acetyl-L-phenylalanine AARS, SEQ ID NO:1 (Young, et al., 2010) (protein, listed as Methanocaldococcus jannaschii)
chain: MDEFEMIKRNTSEIISEEELREVLKKDEKSALIGFEPSGKIHLGHYLQIKKMIDLQNAGFDIIILLADLHAYLNQKGELDEIRKIGDYNKKVFEAMGLKAKYVYGSEFQLDKDYTLNVYRLALKTTLKRARRSMELIAREDENPKVAEVIYPIMQVNGCHYRGVDVAVGGMEQRKIHMLARELLPKKVVCIHNPVLTGLDGEGKMSSSKGNFIAVDDSPEEIRAKIKKAYCPAGVVEGNPIMEIAKYFLEYPLTIKRPEKFGGDLTVNSYEELESLFKNKELHPMRLKNAVAEELIKILEPIRKRL
decrease in the yield of GFP(3TAG) by genomic integration of the OTS (GFP(3TAG) [1]; RF1 deficient GRO, chromosomal versus plasmid OTS): ~20 fold | Yield of purified ELP(30TAG)-GFP (ELP(30TAG)-GFP; nsAA pAcF, GRO): 10.5 ± 5.5 mg/L | Yield of purified ELP(30TAG)-GFP (ELP(30TAG)-GFP; nsAA pAcF, Non-recoded E. coli): 3.04 ± 1.4 mg/L | Km ([3]; nsAA pAcF): 7340 ± 1620 µM | kcat ([3]; nsAA pAcF): 5.01 ± 0.48 ×10^−2 s^−1 | Fold change ([3]; nsAA pAcF): 1 | Km ([3]; nsAA pAzF): 3040 ± 270 µM | kcat ([3]; nsAA pAzF): 4.45 ± 0.13 ×10^−2 s^−1 | Fold change ([3]; nsAA pAzF): 1

B5: pAcFRS.2.t1: pAcFRS variant L65V, A167D, R257G, SEQ ID NO: 8 (protein)
chain: MDEFEMIKRNTSEIISEEELREVLKKDEKSALIGFEPSGKIHLGHYLQIKKMIDLQNAGFDIIIVLADLHAYLNQKGELDEIRKIGDYNKKVFEAMGLKAKYVYGSEFQLDKDYTLNVYRLALKTTLKRARRSMELIAREDENPKVAEVIYPIMQVNGCHYRGVDVDVGGMEQRKIHMLARELLPKKVVCIHNPVLTGLDGEGKMSSSKGNFIAVDDSPEEIRAKIKKAYCPAGVVEGNPIMEIAKYFLEYPLTIKGPEKFGGDLTVNSYEELESLFKNKELHPMRLKNAVAEELIKILEPIRKRL
selectivity toward pAcF over pAzF (GFP(3TAG) [1]; GFP(3TAG) expression, chromosomally integrated AARS): increase in selectivity | nsAA specificity (polyspecificity) (GFP(3TAG) [2]): polyspecifity for at least pAcF, pAzF, StyA, 4IF, 4BrF, 4ClF, 4MeF, 4Cf3F, MeY, 4NO2F, 4BuF, BuY, 2NaA, PheF | Yield of purified ELP(30TAG)-GFP (ELP(30TAG)-GFP; nsAA 4CF3F, GRO): 53 ± 5.4 mg/L | Yield of purified ELP(30TAG)-GFP (ELP(30TAG)-GFP; nsAA BuY, GRO): 64.5 ± 9.7 mg/L | decrease in aminoacylation for pAzF compared with pAcF ([3]; in vitro biochemical analysis): 5 fold | Km ([3]; nsAA pAcF): 2810 ± 890 µM | kcat ([3]; nsAA pAcF): 5.43 ± 0.54 ×10^−2 s^−1 | Fold change ([3]; nsAA pAcF): 2.84 | Km ([3]; nsAA pAzF): 6590 ± 1700 µM | kcat ([3]; nsAA pAzF): 4.22 ± 0.45 ×10^−2 s^−1 | Fold change ([3]; nsAA pAzF): 0.44

From US10501734B2, “Compositions and methods of use thereof for making polypeptides with many instances of nonstandard amino acids” (Yale University, priority 2014, dated 2019)
